# Reference: US20260306676A1, “FLUORESCEIN-LABELED NERVE TARGETING PEPTIDE FORMULATIONS AND RELATED METHODS” (ALUME BIOSCIENCES, INC., priority 2023, published 2026)
# Counter-ions that a name gives are not always drawn.
# Legend:
# [1] = Thermogravimetric analysis of purified ALM-488 chloride salt; type: physicochemical
# [2] = pH-moderated solubility (NaOH titration) of ALM-488 salts; type: physicochemical
# Description: A titration experiment was carried out using the ALM-488, HCl salt to determine if a nominal 40-50 mg/mL or higher solubility could be retained as pH is increased by gradual addition of NaOH. […] At solution pH values <4 the peptide remained in solution at concentrations >50 mg/mL. Above pH 4, the peptide precipitated. […] Dilution of the mixture due to base addition decreased the peptide concentration to ~47 mg/mL at pH values >7.
# FIG. 8 is an overlay of the titration curves for ALM-488 hydrochloride and the ALM-488 acetate.
# [3] = Karl Fisher water content of purified ALM-488 chloride salt; type: physicochemical; conditions: oven 100° C.
# Description: Karl Fisher titration was carried out on the chloride salt of ALM-488 using a Mettler Toledo Stromboli automatic oven sample changer. The instrument was standardized with a Hydranal® Water standard (Fluka). The solid ALM-488 sample was weighed into a sample vial and was heated to 100° C. in the oven, and the water vaporized from the sample was transferred to the titrator cell by purge gas.
# [4] = Influence of storage temperature on stability of ALM-488 solution (HPLC); type: physicochemical; conditions: 50 mg/mL in sterile water for injection
# Description: To evaluate whether the ALM-488, HCl salt can be supplied in the form of a concentrated frozen solution, 50 mg/mL solutions of the HCl salt were prepared in water and evaluated for storage stability at different temperatures. The solutions having pH of 1.87 were prepared in sterile water for injection, and these solutions were stored at different storage temperatures (−20° C., 5° C. and 40° C.) and were analyzed using the HPLC method of Table 3 at different time periods.
# [5] = Effect of organic amine compounds on solubility of ALM-488 (pH titration)
# Description: To assess formulations that could be used to prepare ~50 mg/vial samples of ALM-488, and samples having an ALM-488 concentration of ~50 mg/mL, formulations having different organic amine compounds were studied. Each of these samples included (i) ALM-488 hydrochloride, (ii) a suitable base appropriate for a freeze-dried formulation (to adjust solution pH to optimal 7-8, as described in Examples 4 and 5), and (iii) at least one organic amine compound functioning as a pH-adjusting agent, bulking agent and/or a tonicity-adjusting agent. […] 55-60 mg/mL solutions of ALM-488 (pH 1.8-1.9) were titrated by gradual addition of 750 mM arginine, 1 M Tris, or 1 M meglumine.
compound,measurement,setting,value
"CC(C)[C@H](NC(=O)[C@H](Cc1ccc(O)cc1)NCCCCC(=O)[C@H](Cc1ccc(O)cc1)NC(=O)[C@@H]1CCCN1C(=O)[C@H](CCC(=O)O)NC(=O)[C@H](CCC(=O)O)NC(=O)[C@H](Cc1c[nH]c2ccccc12)NC(=O)[C@@H]1CCCN1C(=O)[C@@H](NC(=O)[C@H](CCC(N)=O)NC(=O)c1ccc2c(c1)C(=O)OC21c2ccc(O)cc2Oc2cc(O)ccc21)C(C)C)C(=O)N[C@H](C(=O)N[C@@H](CCCCN)C(=O)N[C@@H](CCCCN)C(=O)N[C@@H](CO)C(=O)N[C@@H](CO)C(=O)NCC(=O)NCC(N)=O)C(C)C [ALM-488, HCl salt]","onset of steep decrease in weight, presumably degradation",[1]; TGA,200-250 °C
same,weight loss by TGA,[1]; heated to 100° C.,3.96%
same,"pH of resistance to pH change upon base addition (may coincide with pKa of glutamic acid and 5-FAM), first",[2]; NaOH titration,~ 4.5
same,"pH of resistance to pH change upon base addition (may coincide with pKa of glutamic acid and 5-FAM), second",[2]; NaOH titration,~ 6.5
same,precipitation,"[2]; above pH 4, NaOH titration",precipitated
same,initial pH of mixture,"[2]; before NaOH, acetate mixture ~50 mg/mL, listed as ALM-488 hydrochloride",~ 1.8
same,dissolution,"[2]; pH >7, NaOH titration",complete dissolution
same,peptide concentration in solution,"[2]; pH >7, after dilution by base addition",~ 47 mg/mL
same,appearance,"[2]; pH ~4.5 to 5.5, NaOH titration",opaque dispersion
same,appearance,"[2]; pH ~6.5, NaOH titration",clarification of the mixture
same,solubility,"[2]; water with naoh, pH <4, NaOH titration, read-out: concentration remaining in solution",> 50 mg/mL
same,solubility,"[2]; water, visual assessment, solution pH <2, read-out: solubility",> 180 mg/mL
same,solution pH,"[2]; ~55 mg/mL in water, start of titration",1.7
same,water content,[3],4.08%
same,solution pH,[4],1.87
same,Calculated total ALM-488 peptide concentration,[5]; 107 mM tris (pH 7.3),49.2 mg/mL
same,Calculated total ALM-488 peptide concentration,[5]; 116 mM arginine (pH 7.61),51.7 mg/mL
same,solubility,[5]; l-arginine titration,< 50 mg/mL
same,solubility,[5]; meglumine titration,< 50 mg/mL
same,solution pH,[5]; meglumine titration end (printed 107 mm tris),7.88
same,Calculated total ALM-488 peptide concentration,"[5]; meglumine titration, pH 7.88",49.2 mg/mL
same,solution pH,[5]; no L-arginine added,1.86
same,Calculated total ALM-488 peptide concentration,[5]; no L-arginine added (pH 1.86),55 mg/mL
same,solution pH,[5]; no Tris added,1.89
same,Calculated total ALM-488 peptide concentration,[5]; no Tris added (pH 1.89),55 mg/mL
same,solution pH,[5]; no meglumine added,1.86
same,Calculated total ALM-488 peptide concentration,[5]; no meglumine added (pH 1.86),55 mg/mL
same,solubility,[5]; tromethamine (tris) titration,< 50 mg/mL
same,solution pH,[5]; with 107 mM tris,7.3
same,solution pH,[5]; with 116 mM arginine,7.61
